These results are taken from paper PMC2783965.

Holding throughout (assay): FRET or BRET
On the technique in general: In BRET a luciferase serves as donor, and the signal depends on an acceptor being close.

For assay [1], the target named is 43S pre-initiation complex without eIF1 (40S•eIF1A-TAMRA•TC) (S. cerevisiae) (UniProt P38912).
For assay [2] the target is unchanged. The source holds these as a separate data set.
For assay [3] the target is unchanged. The source holds these as a separate data set.
The target is the same in assay [4]. The source holds these as a separate data set.
For assay [5] the target is unchanged. The source holds these as a separate data set.

Where two headings read alike, the source gives them in different places.

UniProt P38912, sequence (P38912 whole entry, looked up, one chain of several): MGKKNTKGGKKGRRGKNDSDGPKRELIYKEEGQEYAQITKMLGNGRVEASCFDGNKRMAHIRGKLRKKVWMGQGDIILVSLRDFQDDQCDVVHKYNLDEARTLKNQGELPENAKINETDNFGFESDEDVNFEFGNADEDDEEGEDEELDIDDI

For “fluorescein-labeled G107K eIF1 (from UniProt P32911 1-108) (natural protein)”, the figures for the kobs of eIF1 dissociation (slow phase) in assay [1] and in assay [2] were 0.1 s⁻¹ and 0.08 s⁻¹, respectively.
Consider “fluorescein-labeled WT eIF1 (from UniProt P32911 1-108) (natural protein)”, for which the kobs of eIF1 dissociation (slow phase) in assay [3] came to 0.56 s⁻¹; in assay [1], 0.4 s⁻¹; in assay [2] it was 0.13 s⁻¹; in assay [4], 0.14 s⁻¹; in assay [5] it was 0.4 s⁻¹.
